Data taken from patent publication US9744222B2, “Peptide for vaccine” (Circassia Limited, priority 2007, dated 2017).

Key:
DRB1*0701 = DRB1*0701 (Homo sapiens, UniProt P01903+P01911, A100R/A102G/A103Q/D57E/D86V/E43K/F76Y/K127E/L162R/M171V/P40G/Q125H/Q99D/R33Q/R42Y/R54Q/S133A/S66F/T210M/V115G/Y107V/Y59L/Y89S); assay: Competitive MHC class II binding assay; details: control peptide Influenza haemagglutinin 307-319
[1] = Precipitation in aqueous solution of the binding assay; format: physicochemical; details: lowest concentration at which an insoluble white precipitate is seen in the aqueous solution of the binding assay
From the text: (§1) This is a characteristic of promiscuous HLA-DRB1* binders.

DRB1*1501 = DRB1*1501 (Homo sapiens, UniProt P01903+P01911); assay: Competitive MHC class II binding assay; details: control peptide Human myelin basic protein 85-99
DQA1*0102/DQB1*0602 = DQA1*0102/DQB1*0602 (Homo sapiens, UniProt P01909+P01920, A157G/A45G/C70R/E118A/E183D/E77G/F83G/G63E/H151Q/H199R/H252R/H253Q/I129T/I235V/I88M/INS77G/K197Q/L117V/L119F/L178F/L71W/L74F/L85Q/L91A/L98M/N214S/P87R/Q116E/Q76K/R102G/R240Q/R75S/R78G/S102Y/S185I/S41F/S97I/T121G/T122I/T172A/T86R/V229M/V68A/V73E/Y34C/Y41F/Y58L); assay: Competitive MHC class II binding assay; details: control peptide Human Insulin B 1-15
Method: as §1
In addition, to identify lower affinity binders, the assay was also carried out under less stringent conditions. All the Der p binding peptides were seen to have a high ratio when tested against this allotype, showing they were low affinity binders compared to the control peptide. The DQA1*0102/DQB1*0602 binding assay uses a peptide from the B-chain of human insulin which is of lower affinity compared to those used in the DR assays. This dictates that the DQ assay is very sensitive and tends to produce very low ratio values for the strongest binders to this MHC Class II allotype. This sensitivity also accounts for the relatively higher number of DQ binding peptides within the panel screened.

DRB1*1101 = DRB1*1101 (Homo sapiens, UniProt P01903+P01911, A100R/A169T/A87E/I96F/K41T/L162R/M171V/P40S/Q125H/Q178H/Q39Y/Q99D/R42S/S66Y/T262R/V115G/W38E); assay: Competitive MHC class II binding assay; details: control peptide Influenza haemagglutinin 307-319
[2] = Solubility pre-screen of peptides; details: pre-screened for solubility in an aqueous, acidic milieu; YES/NO
DRB1*0301 = DRB1*0301 (Homo sapiens, UniProt P01903+P01911, A100K/A102G/A103R/A169T/F55Y/I96L/K41T/L162R/M171V/P40S/Q125H/Q178H/Q39Y/R42S/S66N/T106N/T262R/W38E/Y61H); assay: Competitive MHC class II binding assay; details: control peptide Myco. tuberculosis/leprae hsp 65 2-16
From the text: as §1

[3] = tested on: human MHC class II allotypes; assay: Competitive MHC class II binding assay, all allotypes; details: competition assay, any allotype
From the text: as §1
This is of significance as purities were seen to vary from 60-90%. This would have a considerable effect on the ability of a peptide to compete if it is relatively impure. […] Therefore, if purity is taken into consideration, they may in fact have an equivalent affinity to a peptide of a higher purity.

Sequence | Relative binding, ratio of own IC50 to that of the control peptide, DRB1*0701 (DRB1*0701) | Precipitation in assay [1] | Relative binding, ratio of own IC50 to that of the control peptide, DRB1*1501 (DRB1*1501) | Relative binding, ratio of own IC50 to that of the control peptide, DQA1*0102 QB1*0602 (DQA1*0102/DQB1*0602) | Relative binding, ratio of own IC50 to that of the control peptide, DRB1*1101 (DRB1*1101) | Solubility test [2] | Relative binding, ratio of own IC50 to that of the control peptide, DRB1*0301 (DRB1*0301) | MHC Class II binding (in words) [3]
CIIHRGKPFQLEA [HDM20] | 1.1 | None | 242.11 | 2.37 | 28 | YES | – | –
DGLEVDVPGIDPNACH [HDM23A] | – | None | – | 0.76 | – | – | 347 | low affinity binding
